From publication doi:10.1101/733147 (bioRxiv, 2020) come the findings set out here.

The target of the experiment is T1, human ACVR2B.Fc fusion protein (human, UniProt Q13705).
T1 sequence: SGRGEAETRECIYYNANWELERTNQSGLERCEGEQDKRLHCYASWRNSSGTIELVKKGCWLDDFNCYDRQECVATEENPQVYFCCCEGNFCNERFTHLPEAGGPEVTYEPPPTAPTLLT
As to the kind of experiment: SPR. Background: Surface plasmon resonance follows binding to a sensor surface in real time, without labels.

B1: Activin A.ΔD406 (ligand)
chain: GLECDGKVNICCKKQFFVSFKDIGWNDWIIAPSGYHANYCEGECPSHIAGTSGSSLSFHSTVINHYRMRGHSPFANLKSCCVPTKLRPMSMLYYDGQNIIKKDIQNMIVEECGCS
Consider B1, for which the binding result is listed as “binds”.

B2: Activin A (wild type, mature dimer) (ligand)
chain: GLECDGKVNICCKKQFFVSFKDIGWNDWIIAPSGYHANYCEGECPSHIAGTSGSSLSFHSTVINHYRMRGHSPFANLKSCCVPTKLRPMSMLYYDDGQNIIKKDIQNMIVEECGCS
Take B2: the binding result is listed as “binds”.
